Experiment [1] has as its target T1, bsa (Bos taurus (bovine), UniProt P02769).
T1 construct: also called bovine serum albumin
Briefly: ELISA: D1 IgE Fab on wells with bovine serum albumin, AFOS-conjugated goat anti-human kappa antibody, A405 after 20 min.

Experiment [2] addresses T2, rBLG-His6 T18Y/E45Y/L57Y (bovine, UniProt P02754 17-178, biotinylated with Sulfo-NHS-LC-biotin (2 mol biotin : 1 mol protein) for immobilisation).
T2 construct: also called Triple mutant; Triple
T2 chain: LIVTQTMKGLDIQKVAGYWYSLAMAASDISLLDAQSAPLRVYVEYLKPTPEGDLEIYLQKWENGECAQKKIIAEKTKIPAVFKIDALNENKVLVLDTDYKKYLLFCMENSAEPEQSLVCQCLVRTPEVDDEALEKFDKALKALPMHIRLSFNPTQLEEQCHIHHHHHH
Kind of experiment: ELISA: 1 µg biotinylated BLG on streptavidin wells, D1 IgE Fab, AFOS-conjugated goat anti-human kappa antibody, A405 after 20 min.

Experiment [3] concerns the target T3, rBLG-His6 (recombinant bovine β-lactoglobulin with C-terminal His6 tag) (bovine, UniProt P02754 17-178, biotinylated with Sulfo-NHS-LC-biotin (2 mol biotin : 1 mol protein) for immobilisation).
T3 construct: It was secreted to the E. coli periplasm through a pelB signal that is not part of the entry; also called recombinant BLG
T3 chain: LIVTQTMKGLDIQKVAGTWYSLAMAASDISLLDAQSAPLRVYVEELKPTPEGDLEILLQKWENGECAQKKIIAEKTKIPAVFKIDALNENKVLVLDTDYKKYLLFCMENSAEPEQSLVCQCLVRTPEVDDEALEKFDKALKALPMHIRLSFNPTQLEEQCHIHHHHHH
Kind of experiment: BIAcore SPR, biotinylated rBLG-His6 on streptavidin chip, D1 IgE Fab as analyte (1.1-138.9 nM).

Experiment [4] deals with T4, rBLG-His6 T18Y (bovine, UniProt P02754 17-178, biotinylated with Sulfo-NHS-LC-biotin (2 mol biotin : 1 mol protein) for immobilisation).
T4 chain: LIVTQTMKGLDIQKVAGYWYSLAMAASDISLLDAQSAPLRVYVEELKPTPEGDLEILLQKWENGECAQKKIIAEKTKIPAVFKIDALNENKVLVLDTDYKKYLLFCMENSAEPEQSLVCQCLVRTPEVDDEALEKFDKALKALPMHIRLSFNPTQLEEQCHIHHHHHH
Kind of experiment: BIAcore SPR, biotinylated rBLG-His6 T18Y on streptavidin chip, D1 IgE Fab as analyte (1.1-138.9 nM).

In experiment [5] the target is T5, native bovine milk β-lactoglobulin (nBLG, Sigma) (bovine, UniProt P02754 17-178, biotinylated where immobilised on streptavidin wells or chips; the soluble competitor and the crystallised protein are not biotinylated).
T5 construct: also called native BLG; β-lactoglobulin AB dimer
T5 sequence: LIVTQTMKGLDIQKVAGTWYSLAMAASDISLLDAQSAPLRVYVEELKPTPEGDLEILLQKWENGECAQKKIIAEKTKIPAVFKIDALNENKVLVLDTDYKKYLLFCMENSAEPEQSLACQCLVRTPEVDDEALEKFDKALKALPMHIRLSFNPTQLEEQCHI
Kind of experiment: BIAcore SPR, biotinylated nBLG on streptavidin chip, D1 IgE Fab as analyte (1.1-138.9 nM).

Experiment [6] concerns the target T5, native bovine milk β-lactoglobulin …. Kind of experiment: competitive ELISA: biotinylated BLG AB dimer on streptavidin wells, KRVG peptide incubated with the immobilised BLG, wells washed or not washed, then D1 IgE Fab (the blocked ligand); AFOS-conjugated goat anti-human kappa antibody, A405.

T1 sequence (P02769 25-607 limits assumed): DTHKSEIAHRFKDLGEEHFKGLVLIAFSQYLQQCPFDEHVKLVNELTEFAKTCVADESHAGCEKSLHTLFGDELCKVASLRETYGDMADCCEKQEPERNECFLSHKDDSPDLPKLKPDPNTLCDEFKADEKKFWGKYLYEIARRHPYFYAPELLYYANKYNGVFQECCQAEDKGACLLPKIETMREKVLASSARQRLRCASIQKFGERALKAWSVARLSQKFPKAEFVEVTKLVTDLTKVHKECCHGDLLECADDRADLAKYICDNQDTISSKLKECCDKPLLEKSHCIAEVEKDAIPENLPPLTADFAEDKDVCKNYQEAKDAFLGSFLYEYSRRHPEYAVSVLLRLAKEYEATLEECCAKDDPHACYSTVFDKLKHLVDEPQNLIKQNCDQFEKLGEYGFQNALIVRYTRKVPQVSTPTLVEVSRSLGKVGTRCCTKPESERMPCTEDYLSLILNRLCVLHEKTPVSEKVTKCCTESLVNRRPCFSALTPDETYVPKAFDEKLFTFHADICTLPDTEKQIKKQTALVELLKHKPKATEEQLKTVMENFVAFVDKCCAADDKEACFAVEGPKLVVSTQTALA

B1: D1 IgE Fab (human anti-β-lactoglobulin Fab fragment with human IgG1 subtype, derived from the D1 scFv of a human IgE scFv phage library) (Fab, V domains shown)
VH: QVSLRESGGGLVQPGRSLRLSCTASGFTFRHHGMTWVRQAPGKGLEWVASLSGSGTKTHFADSVKGRFTISRDNSNNTLYLQMDNVRDEDTAIYYCAKAKRVGATGYFDLWGRGTLVTVSS
VL: DIVMTQSPSSLSASVGDRVTITCRASQGISSRLAWYQQKPGKAPKLLIYAASSLQSGVPSRFSGSGSGTEFTLTISSLQPEDFATYYCQQYHSYPWTFGQGTKVEIKR
notes: it was made in E. coli RV308 and purified on nickel; also called D1/Fab; Fab/D1
B1: in experiment [1], the binding result is given as “no binding (tested: 1:15000 dilution of 1.6 mg/ml)”. Further, the binding result in experiment [2] is on record as “no binding (tested: 1:15000 dilution of 1.6 mg/ml)”. Also, in experiment [3], the Ka came out at 1.2e+08 M⁻¹, the Kd amounted to 8.5 nM, the koff is 0.0082 s⁻¹ and the kon came to 961000 M⁻¹ s⁻¹. Also, in experiment [4], the Ka is 1.6e+06 M⁻¹, the Kd is 610 nM, the koff was found to be 0.082 s⁻¹ and the kon was found to be 130000 M⁻¹ s⁻¹. Also, in experiment [5], the Ka was 3.7e+08 M⁻¹, binding was put at a Kd of 2.7 nM, the dissociation rate constant (koff) worked out at 0.0048 s⁻¹ and the kon worked out at 1.8e+06 M⁻¹ s⁻¹.

As for KRVG [peptide KRVG (from the HCDR3 of D1 IgE Fab)], in experiment [6], the binding result was “binds”.

The values above are taken from patent publication US20100086552A1 (VALTION TEKNILLINEN TUTKIMUSKESKUS, published 2010).
